Experimental data from US20220251236A1 (Boehringer Ingelheim, published 2022).

Legend:
[1] = target: T1, trypsin inhibitor from glycine max soybean (Glycine max (soybean)); experiment: SPR (Biacore T200), trypsin inhibitor on CM5 chip, sample at 1 µM
T1 construct: also called Tryp
Excerpt: To prepare the surface for the non-specific binding experiment, chicken egg white lysozyme and trypsin inhibitor from glycine max soybean were coupled manually to a series S CM5 chip with the surface density of 3000-5000 RU using the amine coupling kit according to the manufacture instructions.

Human CD3 E+G HuFc-6xHis [2] = target: T2, Human CD3 E+G HuFc-6xHis (human); experiment: SPR (ProteOn XPR36), CD3εγ-Fc amine-coupled, bispecific as analyte, equilibrium fit, Example 4A
T2 construct: also called hu CD3εγ-Fc
T2 sequence (chain, as listed by the source limits assumed): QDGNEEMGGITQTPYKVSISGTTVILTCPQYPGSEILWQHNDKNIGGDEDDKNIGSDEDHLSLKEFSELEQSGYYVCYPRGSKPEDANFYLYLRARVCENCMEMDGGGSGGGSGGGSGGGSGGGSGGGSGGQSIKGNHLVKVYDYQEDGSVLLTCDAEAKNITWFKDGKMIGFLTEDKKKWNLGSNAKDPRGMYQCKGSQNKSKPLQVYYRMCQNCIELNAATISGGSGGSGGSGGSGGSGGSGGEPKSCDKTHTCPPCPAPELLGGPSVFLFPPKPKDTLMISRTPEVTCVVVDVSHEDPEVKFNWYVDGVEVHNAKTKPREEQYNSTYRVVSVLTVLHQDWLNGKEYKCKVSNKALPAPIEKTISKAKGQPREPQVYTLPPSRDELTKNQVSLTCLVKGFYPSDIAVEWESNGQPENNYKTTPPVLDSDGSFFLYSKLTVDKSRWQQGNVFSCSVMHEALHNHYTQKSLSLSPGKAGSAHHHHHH
Description: (§1) The binding affinity of purified DLL3/CD3 bispecific constructs for recombinant human and cyno DLL3-ECD and Fc-fusion proteins of human and cyno CD3 εγ subunits was determined by Surface Plasmon Resonance (SPR), using a ProteOn XPR36 instrument (Bio-Rad). The running buffer and all dilutions (except where stated) were done in PBS-T-EDTA. The GLM sensor chip (Bio-Rad) was normalized and pre-conditioned as per the manufacturer's recommendations. The sensor chip was activated with equal mixture of EDC/s-NHS in the horizontal direction for 300 sec at a flow rate of 30 ul/min and immobilized with protein A/G (20 ug/ml in 10 mM acetate pH 4.5) in the horizontal direction for 300 sec at a flowrate of 30 ul/min resulting in ˜5000 RU of protein A/G on the surface. The sensor chip was deactivated with 1M ethanolamine HCl in the horizontal direction for 300 sec at a flowrate of 30 μl/min.
For binding kinetic determination to CD3, hu CD3εγ-Fc and cy CD3εγ-Fc (dissolved in pH 4.5 acetate) was immobilized directly onto the sensor surface through amine coupling for 140 sec at a flowrate of 30 μl/min vertically. The baseline was stabilized by injecting PBS-T-EDTA for 60 sec at a flowrate of 40 μl/min horizontally. The analyte (the bispecific molecule) was injected horizontally over the captured CD3εγ-Fc construct for 600 sec at a flowrate of 40 μl/min and a dissociation for 600 sec.
(§2) The inter spot (interactions with sensor surface) and blank (PBS-T-EDTA) were subtracted from the raw data.

Cyno DLL3-His [3] = target: T3, Cyno DLL3-His (cynomolgus monkey, UniProt Q9NYJ7 27-492 (human entry)); experiment: SPR (ProteOn XPR36), bispecific captured on protein A/G, DLL3 as analyte, Example 4A
T3 construct: also called cy DLL3; recombinant cyno DLL3-ECD
T3 chain: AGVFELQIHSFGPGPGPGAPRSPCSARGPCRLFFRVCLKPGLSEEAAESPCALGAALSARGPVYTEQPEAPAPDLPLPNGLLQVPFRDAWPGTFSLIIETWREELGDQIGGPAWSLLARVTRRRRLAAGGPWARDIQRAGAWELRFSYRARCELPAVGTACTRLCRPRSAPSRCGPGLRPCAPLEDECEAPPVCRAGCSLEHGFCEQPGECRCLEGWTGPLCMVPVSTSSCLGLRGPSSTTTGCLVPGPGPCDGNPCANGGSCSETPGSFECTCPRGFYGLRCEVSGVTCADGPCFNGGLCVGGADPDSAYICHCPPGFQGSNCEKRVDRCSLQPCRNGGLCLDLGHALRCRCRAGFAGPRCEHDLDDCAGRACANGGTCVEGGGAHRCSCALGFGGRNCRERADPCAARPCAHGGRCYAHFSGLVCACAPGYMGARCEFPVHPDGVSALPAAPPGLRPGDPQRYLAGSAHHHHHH
Description: as §1
(§3) For binding kinetic determination to DLL3, bispecific molecules were captured individually on the protein A/G surface vertically for 250 sec at a flowrate of 25 μl/min. The baseline was stabilized by injecting PBS-T-EDTA for 60 sec at a flowrate of 40 μl/min horizontally. The analyte (hu DLL3 or cy DLL3) was injected horizontally over the captured antibody for 600 sec at a flowrate of 40 μl/min and a dissociation for 2700 sec.
as §2

Human DLL3-His [4] = target: T4, Human DLL3-His (human, UniProt Q9NYJ7 27-492); experiment: as above
T4 construct: also called huDLL3-His; hu DLL3
T4 sequence: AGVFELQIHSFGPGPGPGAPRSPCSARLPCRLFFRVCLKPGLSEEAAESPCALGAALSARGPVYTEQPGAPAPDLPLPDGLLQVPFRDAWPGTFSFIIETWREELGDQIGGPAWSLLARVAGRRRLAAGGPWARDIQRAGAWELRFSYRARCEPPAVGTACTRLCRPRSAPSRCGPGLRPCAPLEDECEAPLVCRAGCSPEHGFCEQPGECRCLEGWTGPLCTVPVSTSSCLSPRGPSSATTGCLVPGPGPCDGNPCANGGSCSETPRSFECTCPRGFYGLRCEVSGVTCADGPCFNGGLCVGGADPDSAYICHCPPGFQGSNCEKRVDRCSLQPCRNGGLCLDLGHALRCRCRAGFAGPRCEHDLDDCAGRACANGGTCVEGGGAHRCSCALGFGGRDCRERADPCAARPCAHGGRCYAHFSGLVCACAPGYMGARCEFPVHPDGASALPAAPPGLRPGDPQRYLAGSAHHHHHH
Description: as §1, §3, §2

Cyno DLL3-His [5] = target: T3, Cyno DLL3-His; experiment: SPR; ratio of the KD values for human and cyno DLL3
Description: as §1, §3, §2

Human DLL3-His [6] = target: T4, Human DLL3-His; experiment: SPR (ProteOn XPR36), bispecific captured on protein A/G, hu DLL3 as analyte, Example 4B
Description: The binding affinity of purified DLL3/CD3 bispecific constructs for recombinant human DLL3-ECD and Fc-fusion protein of human CD3 εγ subunits was determined by Surface Plasmon Resonance (SPR), using a ProteOn XPR36 instrument (Bio-Rad).
For binding kinetic determination to DLL3, anti-DLL3/CD3 molecules were captured individually on the protein A/G surface vertically for 200 sec at a flowrate of 30 μl/min. The baseline was stabilized by injecting PBS-T-EDTA for 60 sec at a flowrate of 30 μl/min horizontally. The analyte (hu DLL3) was injected horizontally over the captured antibody for 300 sec at a flowrate of 30 μl/min and a dissociation for 1800 sec.

Human CD3 E+G HuFc-6xHis [7] = target: T2, Human CD3 E+G HuFc-6xHis; experiment: SPR (ProteOn XPR36), HuCD3E_HuCD3G-Fc amine-coupled, bispecific as analyte, Example 4B
Method in brief: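 Human CD3ε/γ-Fc fusion is amine-coupled to the chip at pH 4.5. Anti-DLL3/CD3 bispecifics are injected as analyte in PBS-T-EDTA at 30 μl/min, with 600 s association and 1800 s dissociation. Binding kinetics are measured by SPR.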

T1 sequence (P01070 25-205): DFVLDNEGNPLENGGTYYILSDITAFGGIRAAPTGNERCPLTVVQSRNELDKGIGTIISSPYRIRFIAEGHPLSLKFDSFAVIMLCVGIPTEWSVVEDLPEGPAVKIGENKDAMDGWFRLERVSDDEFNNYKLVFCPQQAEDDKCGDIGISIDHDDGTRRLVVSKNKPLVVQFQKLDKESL

B1: DLL3#3/CD3#3 (bispecific antibody, human IgG1, kappa, lambda, L234A L235A)
chain 1: DIQMTQSPSAMSASVGDRVTITCRASQGISNYLVWFQQKPGKAPKRLIYAVSSLYSGVPSRFSGSGSGTEFTLTISSLQPEDFATYYCLQHDSYPYTFGQGTKLEIKRTVAAPSVFIFPPSDEQLKSGTASVVCLLNNFYPREAKVQWKVDNALQSGNSQESVTEQDSKDSTYSLSSTLTLSKADYEKHKVYACEVTHQGLSSPVTKSFNRGECGGGGSEGKSSGSGSESKSTEGKSSGSGSESKSTGGGGSQVQLVQSGAEVKKPGASVKVSCKASGYTFTSYYVHWVRQAPGQGLEWMVIINPGGGTTSYAQKFLGRVTMTRDTSTNTVYMELKSLRSEDTAVYYCARGEAVTGNYFYYGMDVWGQGTTVTVSSASTKGPSVFPLAPSSKSTSGGTAALGCLVKDYFPEPVTVSWNSGALTSGVHTFPAVLQSSGLYSLSSVVTVPSSSLGTQTYICNVNHKPSNTKVDKRVEPKSCDKTHTCPPCPAPEAAGGPSVFLFPPKPKDTLMISRTPEVTCVVVDVSHEDPEVKFNWYVDGVEVHNAKTKPREEQYNSTYRVVSVLTVLHQDWLNGKEYKCKVSNKALPAPIEKTISKAKGQPREPQVYTLPPSREEMTKNQVSLWCLVKGFYPSDIAVEWESNGQPENNYKTTPPVLDSDGSFFLYSKLTVDKSRWQQGNVFSCSVMHEALHNHYTQKSLSLSPG
chain 2: EAVVTQEPSLTVSPGGTVTLTCRSSTGAVTTSNYANWVQEKPGQLPRGLIGGTNKRAPWVPARFSGSLLGGKAALTLSGAQPEDEAEYFCALWYSNLWVFGGGTKLTVLGQPKAAPSVTLFPPSSEELQANKATLVCLISDFYPGAVKVAWKADGSPVNTGVETTTPSKQSNNKYAASSYLSLTPEQWKSHRSYSCQVTHEGSTVEKTVAPAECSGGGGSEGKSSGSGSESKSTEGKSSGSGSESKSTGGGGSEVQLVESGGGLVQPGGSLKLSCAASGFTFNTYAMNWVRQAPGKGLEWVARIRSKYANYATYYADSVKDRFTISRDDSKNTAYLQMNNLKTEDTAVYYCVRHGNFGNSYVSWFAYWGQGTLVTVSAASTKGPSVFPLAPSSKSTSGGTAALGCLVKDYFPEPVTVSWNSGALTSGVHTFPAVLQSSGLYSLSSVVTVPSSSLGTQTYICNVNHKPSNTKVDKRVEPKSCDKTHTCPPCPAPEAAGGPSVFLFPPKPKDTLMISRTPEVTCVVVDVSHEDPEVKFNWYVDGVEVHNAKTKPREEQYNSTYRVVSVLTVLHQDWLNGKEYKCKVSNKALPAPIEKTISKAKGQPREPQVYTLPPSREEMTKNQVSLSCAVKGFYPSDIAVEWESNGQPENNYKTTPPVLDSDGSFFLVSKLTVDKSRWQQGNVFSCSVMHEALHNRFTQKSLSLSPG
notes: Heterodimer of one DLL3 chain and one CD3 chain (scFab-Fc, knob-in-hole)
With B1 the “Non-specific binding (RU)” value [1] was 28 RU, the Kd (Human CD3 E+G HuFc-6xHis [2]) was 68 nM and the Kd (Cyno DLL3-His [3]) was < 0.01 nM. The Kd (Human DLL3-His [4]) was < 0.01 nM, the “Affinity gap KD hu/cyno DLL3” value (Cyno DLL3-His [5]) was 1 and the Kd (Human DLL3-His [6]) was 0.116 nM. It also gave a Kd (Human CD3 E+G HuFc-6xHis [7]) of 4 nM.
